Source: patent US20240382633A1, “RADIOPHARMACEUTICALS, METHODS FOR THE PRODUCTION THEREOF, AND USES IN TREATMENT, DIAGNOSIS AND IMAGING DISEASES” (priority 2021, published 2024)

Experiments:
[1] = test system: PC3 tumours; assay: in vivo; set-up: species or system Balb/c nude mice; conditions: mouse
Description: (§1) Healthy male Balb/c nude mice (˜18 g) from 8 weeks old were obtained from the ARC and used for this study. Mice were imported into the CAI animal holding facility and monitored for 1 week prior to the study in order to acclimatize to the environment prior to injection of cells. All animals were provided with free access to food and water before and during the imaging experiments which were approved by the University of Queensland Animal Ethics Committee (Approval #AIBN/CAI/105/19/ARC/NHMRC).
(§2) 8-week-old male Balb/c nude mice were injected (27G needle) subcutaneously with PC3 ([…]) cells in 50 μL of 50:50 matrigel and cells in phosphate buffered saline into the right flank of each mouse. There was no evidence of ulceration at the time of dosing; the animals were closely monitored and remained in good condition apart from the growth of tumours. […] Labelled peptides were injected via the tail vein (29G needle; ˜2-3 MBq) and then mice were imaged using the Siemens Inveon PET-CT instrument at the various time points.
(§3) Organs were excised at 24 hours, with the percentage of injected dose of the administered compound determined by ex vivo gamma counting (Table 1, FIG. 5). Values are averages across 4 mice.

[2] = in vivo; set-up: species or system Balb/c nude mice; conditions: male, Balb/c nude, mouse, iv, total radioactivity, Percentage of injected dose
Description: as §1, §2, §3

[3] = Stability of aqueous formulation (radiochemical purity over time); assay type: physicochemical; conditions: up to 48 hours post End of Synthesis, 3 validation batches
Experimental: Product stability was monitored up to 48 hours post End of Synthesis (EOS) for 3 validation batches of [^64Cu]Formula (Ib) in an aqueous formulation prepared as outlined above. Due to time restrictions, identical stability sampling time points were not always achievable. […] This is attributed to radioactive decay reducing the peak area of radiolytic impurities to below detectable limits, rather than a true increase in the radiochemical purity.

SMILES	Percentage of injected dose, Tail [1]	tissue uptake at 24 h ([2]; Blood)	tissue uptake at 24 h ([2]; GI Tract)	tissue uptake at 24 h ([2]; Heart)	tissue uptake at 24 h ([2]; Kidneys)	tissue uptake at 24 h ([2]; Liver)	tissue uptake at 24 h ([2]; Lungs)	tissue uptake at 24 h ([2]; Pancreas)	tissue uptake at 24 h ([2]; Spleen)	tissue uptake at 24 h ([2]; Tumour)	tissue uptake at 24 h ([2]; Tail)	radiochemical purity (stability) [3]
CC(C)C[C@H](NC(=O)C[C@H](O)[C@H](CC(C)C)NC(=O)[C@H](Cc1c[nH]cn1)NC(=O)CNC(=O)[C@@H](NC(=O)[C@H](C)NC(=O)[C@H](Cc1c[nH]c2ccccc12)NC(=O)[C@H](CCC(N)=O)NC(=O)[C@@H](Cc1ccccc1)NC(=O)CCOCCOCCOCCOCCNC(=O)CCCC(=O)NC12CNCCNCC(NC(=O)CCCC(=O)NCCOCCOCCOCCOCCC(=O)N[C@H](Cc3ccccc3)C(=O)N[C@@H](CCC(N)=O)C(=O)N[C@@H](Cc3c[nH]c4ccccc34)C(=O)N[C@@H](C)C(=O)N[C@H](C(=O)NCC(=O)N[C@@H](Cc3c[nH]cn3)C(=O)N[C@@H](CC(C)C)[C@@H](O)CC(=O)N[C@@H](CC(C)C)C(N)=O)C(C)C)(CNCCNC1)CNCCNC2)C(C)C)C(N)=O [[^64Cu]Formula (Ia), metal not drawn]	0.28 0.05 % ID/g	0.1 ± 0.05 %ID/g	0.44 ± 0.04 %ID/g	0.21 ± 0.03 %ID/g	6.81 ± 0.67 %ID/g	16.8 ± 1.55 %ID/g	0.36 ± 0.12 %ID/g	0.84 ± 0.06 %ID/g	1.47 ± 0.2 %ID/g	2.13 ± 0.86 %ID/g		
CC(C)C[C@H](NC(=O)C[C@H](O)[C@H](CC(C)C)NC(=O)[C@H](Cc1c[nH]cn1)NC(=O)CNC(=O)[C@@H](NC(=O)[C@H](C)NC(=O)[C@H](Cc1c[nH]c2ccccc12)NC(=O)[C@H](CCC(N)=O)NC(=O)[C@@H](Cc1ccccc1)NC(=O)CCOCCOCCOCCOCCNC(=O)CCCC(=O)NC12CNCCNCC(C)(CNCCNC1)CNCCNC2)C(C)C)C(N)=O [[^64Cu]Formula (Ib), metal not drawn]		0.13 ± 0.04 %ID/g	0.3 ± 0.07 %ID/g	0.24 ± 0.02 %ID/g	3.55 ± 0.79 %ID/g	1.52 ± 0.18 %ID/g	0.31 ± 0.08 %ID/g	0.23 ± 0.02 %ID/g	0.38 ± 0.06 %ID/g	4.09 ± 0.52 %ID/g	0.56 ± 0.87 %ID/g	≥ 92.4%
